{"source": "the supplement of paper PMC10899765", "data": [{"tested_on": "MCF10A", "assay": "5+ nucleoli phenotype percent effect (relative to siNT 0% and siKIF11 100%); higher = more cells with five or more nucleoli", "details": "20 nM; 72 h", "description": "(§1)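 After 72 h, cells were fixed and stained with Hoechst and anti-fibrillarin, and nucleoli per nucleus were counted with CellProfiler. Values are plate-adjusted percent effect for the one-nucleolus and 5+ nucleoli phenotypes, normalised to siNT (0%) and to the positive controls siNOL11 or siKIF11 (100%), as the mean of biological triplicates. Percent viability is the nuclei count relative to siNT.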", "units": {"5+ nucleoli phenotype percent effect": "%"}, "values": [{"sequence": "GGUGGGGGCUGUUGUUU [hsa-miR-4447]", "5+ nucleoli phenotype percent effect": -20.8}, {"sequence": "CAUCAGCACCCUAUGUCCUUUCU [hsa-miR-3617-3p]", "5+ nucleoli phenotype percent effect": -20.3}, {"sequence": "UCCCACUACUUCACUUGUGA [hsa-miR-4301]", "5+ nucleoli phenotype percent effect": 60.9}, {"sequence": "UAUGGUACUCCUUAAGCUAAC [hsa-miR-5579-5p]", "5+ nucleoli phenotype percent effect": 101}, {"sequence": "GGUUCCCUCUCCAAAUGUGUCU [hsa-miR-642b-5p]", "5+ nucleoli phenotype percent effect": 21.2}, {"sequence": "CGGGUGGAUCACGAUGCAAUUU [hsa-miR-363-5p]", "5+ nucleoli phenotype percent effect": 161}, {"sequence": "AAACUAAUAUACCCAUAUUCUG [hsa-miR-5583-5p]", "5+ nucleoli phenotype percent effect": 35.5}, {"sequence": "AACGCCAUUAUCACACUAAAUA [hsa-miR-122-3p]", "5+ nucleoli phenotype percent effect": 35.4}, {"sequence": "UCUGAAUAGAGUCUGAAGAGU [hsa-miR-4427]", "5+ nucleoli phenotype percent effect": 39.9}, {"sequence": "CUGUGGGCUCAGCUCUGGG [hsa-miR-4265]", "5+ nucleoli phenotype percent effect": -38.1}, {"sequence": "UAAAUUUCACCUUUCUGAGAAGA [hsa-miR-513c-3p]", "5+ nucleoli phenotype percent effect": -1.66}, {"sequence": "GUGGACCAGGAUGGCAAGGGCU [hsa-miR-4776-5p]", "5+ nucleoli phenotype percent effect": 14.5}, {"sequence": "GCUGGGAAGGCAAAGGGACGU [hsa-miR-204-3p]", "5+ nucleoli phenotype percent effect": 24.5}, {"sequence": "AGAAGUAACUACGGUUUUUGCA [hsa-miR-548ao-5p]", "5+ nucleoli phenotype percent effect": 27.5}, {"sequence": "GCAAAGCACACGGCCUGCAGAGA [hsa-miR-330-3p]", "5+ nucleoli phenotype percent effect": 16.5}, {"sequence": "GUGGGGCCAGGCGGUGG [hsa-miR-1227-5p]", "5+ nucleoli phenotype percent effect": 55.1}, {"sequence": "GUGGGCGGGGGCAGGUGUGUG [hsa-miR-1228-5p]", "5+ nucleoli phenotype percent effect": 15.3}, {"sequence": "GGGAAAAGGAAGGGGGAGGA [hsa-miR-6124]", "5+ nucleoli phenotype percent effect": 53.1}]}, {"tested_on": "MCF10A", "assay": "percent viability (nuclei count relative to siNT); higher = more viable cells", "details": "20 nM; 72 h", "description": "as §1", "units": {"percent viability": "%"}, "values": [{"sequence": "UGGAGUCCAGGAAUCUGCAUUUU [hsa-miR-1289]", "percent viability": 20}, {"sequence": "GAGCAAUGUAGGUAGACUGUUU [hsa-miR-3908]", "percent viability": 19.8}, {"sequence": "GAGGGCAUGCGCACUUUGUCC [hsa-miR-4761-3p]", "percent viability": 20}, {"sequence": "UGGUCUGCAAAGAGAUGACUGU [hsa-miR-4527]", "percent viability": 12.3}, {"sequence": "AAGGAGAUGCUCAGGCAGAU [hsa-miR-6888-5p]", "percent viability": 31}, {"sequence": "AAAAGGCAUUGUGGUUUUUG [hsa-miR-548an]", "percent viability": 11.6}, {"sequence": "CUGGCGGAGCCCAUUCCAUGCCA [hsa-miR-4730]", "percent viability": 18.2}, {"sequence": "AAGCAGCUGCCUCUGAGGC [hsa-miR-646]", "percent viability": 32.4}, {"sequence": "UGUGUGGAUCCUGGAGGAGGCA [hsa-miR-3911]", "percent viability": 12.9}, {"sequence": "CACCAGGGCAGAGCAGGGCUGA [hsa-miR-6753-5p]", "percent viability": 15}, {"sequence": "UCUCCCUUGAGGGCACUUU [hsa-miR-4287]", "percent viability": 66}, {"sequence": "GGCUGGGUGCUCUUGUGCAGU [hsa-miR-5589-5p]", "percent viability": 17.4}, {"sequence": "CGCGCCGGGCCCGGGUU [hsa-miR-3195]", "percent viability": 19.4}, {"sequence": "UCUGCAGGGUUUGCUUUGAG [hsa-miR-1205]", "percent viability": 20.5}, {"sequence": "CUCGGCGCGGGGCGCGGGCUCC [hsa-miR-1469]", "percent viability": 30}, {"sequence": "UUUGGGACUGAUCUUGAUGUCU [hsa-miR-3913-5p]", "percent viability": 69.2}, {"sequence": "UGAAUGGUAAAGCGAUGUCACA [hsa-miR-4790-3p]", "percent viability": 32.2}, {"sequence": "CAAUGGCACAAACUCAUUCUUGA [hsa-miR-5197-5p]", "percent viability": 22.7}, {"sequence": "CAGCCUCUGCCCUUGGCCUCC [hsa-miR-6877-3p]", "percent viability": 28.9}, {"sequence": "ACUGGGCUUGGAGUCAGAAG [hsa-miR-378g]", "percent viability": 16.8}, {"sequence": "GAGCAGGCGAGGCUGGGCUGAA [hsa-miR-4690-5p]", "percent viability": 11.1}, {"sequence": "GGCGACAAAACGAGACCCUGUC [hsa-miR-1273c]", "percent viability": 17.4}, {"sequence": "AGGAGCUAUCCACUCCAGGUGUCC [hsa-miR-6500-5p]", "percent viability": 19.2}, {"sequence": "UUGCACUUGUCUCAGUGA [hsa-miR-4325]", "percent viability": 15.7}, {"sequence": "GUGUGUGGAAAUGCUUCUGC [hsa-miR-147a]", "percent viability": 18.3}, {"sequence": "CUCUCCUCCCGGCUUC [hsa-miR-4279]", "percent viability": 14.1}, {"sequence": "UUCUCCCACUACCAGGCUCCCA [hsa-miR-4713-5p]", "percent viability": 32.9}, {"sequence": "UCAUAGCCCUGUACAAUGCUGCU [hsa-miR-103b]", "percent viability": 46.2}, {"sequence": "CUAGGGGGUUUGCCCUUG [hsa-miR-4278]", "percent viability": 13.5}, {"sequence": "CCCCACCUCCUCUCUCCUCAG [hsa-miR-1224-3p]", "percent viability": 86.7}, {"sequence": "GGCUCCUCCUCUCAGGAUGUG [hsa-miR-4268]", "percent viability": 41.5}, {"sequence": "AGGUAUUGCCACCCUUUCUAGU [hsa-miR-5681b]", "percent viability": 12.7}, {"sequence": "GCCCCGGCGCGGGCGGGUUCUGG [hsa-miR-4707-5p]", "percent viability": 116}, {"sequence": "GUAGGUGACAGUCAGGGGCGG [hsa-miR-6800-5p]", "percent viability": 33.9}, {"sequence": "CUCACUGAACAAUGAAUGCAA [hsa-miR-181b-3p]", "percent viability": 61.5}, {"sequence": "CUCUAGAGGGAAGCGCUUUCUG [hsa-miR-522-5p]", "percent viability": 40.6}, {"sequence": "AAAGACAUAGGAUAGAGUCACCUC [hsa-miR-641]", "percent viability": 213}, {"sequence": "AAAAUGGUGCCCUAGUGACUACA [hsa-miR-224-3p]", "percent viability": 13.9}, {"sequence": "AGUGGGGUGGGACCCAGCUGUU [hsa-miR-6742-5p]", "percent viability": 21.8}, {"sequence": "GUCCCUGAGUGUAUGUGGUG [hsa-miR-670]", "percent viability": 47.5}, {"sequence": "UAACAAACACCUGUAAAACAGC [hsa-miR-5688]", "percent viability": 101}, {"sequence": "AGCCCCCUGGCCCCAAACCC [hsa-miR-4313]", "percent viability": 38.7}, {"sequence": "UGGCGGGGGUAGAGCUGGCUGC [hsa-miR-6787-5p]", "percent viability": 23.7}, {"sequence": "GGUGGGGGCUGUUGUUU [hsa-miR-4447]", "percent viability": 24.5}, {"sequence": "CAUCAGCACCCUAUGUCCUUUCU [hsa-miR-3617-3p]", "percent viability": 20}, {"sequence": "UCCCACUACUUCACUUGUGA [hsa-miR-4301]", "percent viability": 45.1}, {"sequence": "UAUGGUACUCCUUAAGCUAAC [hsa-miR-5579-5p]", "percent viability": 86.3}, {"sequence": "GGUUCCCUCUCCAAAUGUGUCU [hsa-miR-642b-5p]", "percent viability": 44.4}, {"sequence": "CGGGUGGAUCACGAUGCAAUUU [hsa-miR-363-5p]", "percent viability": 4.57}, {"sequence": "AAACUAAUAUACCCAUAUUCUG [hsa-miR-5583-5p]", "percent viability": 115}, {"sequence": "AACGCCAUUAUCACACUAAAUA [hsa-miR-122-3p]", "percent viability": 131}, {"sequence": "UCUGAAUAGAGUCUGAAGAGU [hsa-miR-4427]", "percent viability": 71.5}]}]}
